Paper PMC10932606

Biological target: semiSWEET
Test: native MS

percent dimer: > 95%
stoichiometry N: 2
Substance: semiSWEET (natural protein)
